# Experimental data from the nanobody polyreactivity screen of Harvey et al. (2022).
# Experiment: yeast display, Sf9 membrane polyspecificity reagent, FACS + sequencing; frameworks hold sequencing errors
# Method in brief: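 Galactose induction of a Saccharomyces cerevisiae BJ5465 synthetic nanobody display library ran 36–48 hours. The cells were then stained for 1 hour at 4 °C with 10% biotinylated, detergent-solubilized Sf9 membrane reagent, pulled down on streptavidin microbeads and FACS-sorted into low and high (top ~1%) gates on expression and reagent-binding fluorescence. Labels for polyreactivity follow the gate of origin.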
row,Sequence,polyreactivity (PSR sort gate)
1,QVQLVESGGGLVQAGCSLRLIFAASGSIFIGYAMGWYRQAPGKERELVATITNGGSTYYADSVKGRFTISRDNAKNTVYLQMNSLKPEDSAVYYCNKPTYQWGQGTQVTVSS,high polyreactivity
2,QVQLVESGGGLVKAGGSIRLSCAASGSIFTWYAMGWYRQAPGKESELVAAISEDGGSTYYADSVKGRFTISRDNAKNSVFLQMNSLKPEDTAVYYCATPVASVTGYDYWGQGTQVTVSS,low polyreactivity
3,QVQLVESGGGLVQAGGSLRLSCAASGRTLTLNAMGWYRQAPGKERELVAAISGSGGRTFYADSVKGRFTISRDNAKNTVYLQMNSLKPEDTAVYYCAADYFYLKWYEYWGQGTQVTVSS,high polyreactivity
4,HVQLVESGGGLVQAGGSLRLSCAASGSTFTVNAMGWYRQAPGKERELVAAISASGGRTYYADSVKGRFTISRDNAKNTVYLQMNSLKPEDTAVYYCAARFRTWGNREAGYYWGQGTQVTVSS,high polyreactivity
5,QVQLVESGGGLVQAGGSLRLSCAASGITYRYAMGCYRQAPGKERELVAAITSSGASTYYADSVKGRFTISRDNAKNTVYLQMNSLKPEDTAVYYCATPLRKVYGGYEYWGQGTQVTVSS,low polyreactivity
6,QDQLVESGGGLVQAGGSLRLSCAASGSSFGYYAMGWYRQAPGKERELVASISWRGVSTYYADSVKGRFTISRDNAKNTVYIQMNSLKPEDTAVYYCATVYRWSFDYWGQGTQVTVSS,low polyreactivity
7,QVQLQESGGLVQAGGLRLSCAASGSVSYQEAMGWYRQAPGKERELVATISFGANTNYAESVKGRFTISRDNAKISLYLQMNSLQPEDTSLYYWAAECLFDDYYGYWGQGTQVTVSS,low polyreactivity
8,QVQLVESGGGLVQAGGSLRLSCAASGSIFNYNAMGWYRQAPGKERELVAAITWSGGTTYYADSVKGRFTISRDNAKNTVYLQMNSLIPEDTAVYYCAAEWWDGSYPLYEYYYWGQGTQVNVSS,high polyreactivity
9,QVQLVESGGGLVQAGGSLRLSCAASGITSRPNAMGWYRQAPGKERELVAAISGSGGRTYYADSVKGRFTISRDNAKNTVYLQMNSLKPEDTAVYYCNAVGGGRWYEYWGLGTQVTVSS,high polyreactivity
10,QVQLVESGGGLVQAGGSLRLTCAATGSTLYFYAMGWYRQAPGKERELVASISGTGGRTDYADSVKGRFTISRDNAKNTVYLQMNSLKPEDTAVYYCAADLIRRYGDGYWGQGTQVTVSS,high polyreactivity
11,QVQLVESGGGLVQAGGSLRLSCAASGSTFRRNVMGWSRQAPGKERELVAVISKSGGSTYYADSVKGRFTISRDNAENTVYLQMNSLKPEDTAVYYCAARYLKGYGYWGQGTQVTVSS,high polyreactivity
12,QVQLVESGGGLVQAGGSLRLSCPASGRIFPRYAMGWYRPAPGKERELVARITRRGGITYYADSVKGRFTISRDNAQNTVYLEMNSLKPEDTAVYYCNVDYYRGGDFSYGYDYWGQGTQLTVSS,high polyreactivity
13,QVQLVESGGGLVQAGGSLRVSCAASGFTFSYYVMGWYRQAPGKERELVAAITTSGSGTYYADSVKGRFTISRDNAKNTVYLQMNSLKPEDTAVYYCAARPYRGFVSRYGYWGQGTQVTVSS,low polyreactivity
14,QVQLVESGGGLVQAGGILRLSCAASGINFLYYAMGWYREAPGKEMELVAAINGSGGNTYYADSVKGRFTISLDNAKNTVYLQMNRLKPEDTAVYYCNADFFVYSYQQWDEYYDYWGQGTQVTVSS,low polyreactivity
15,QVQLVESGGGLVQAGGSLRLSCAASGSTFTYNAMGWYRQAPGKVRELVASISSGTTTYYADSVKGRFTISRDNAKNTVYLQMNSLTPEDTAVYYCAVDSWSRVQGWLAHNYDYWGQGTQVTVSS,low polyreactivity
16,QVQLVESGGGLVQAGGSLRLSCAASGLTLTHYAMGWYRQAPGKERELVATISRSGGRTYYADSVKGRFTISRDNAKNTVYLQMNSLKPEDTAVYYCNAEYYYGRGWYDYWGQGTQVTVSS,high polyreactivity
17,QVQLLESGGGLVQAGGSLRLSCAASGSIFTGNAMGWYRQAPGKERELVAAISSSGGSTYYADSVKGRFTISRDNAKNNVYLQMNSLKPEDTAVYYCAAYNYFLQYDYWGQGSQVTVSS,low polyreactivity
